Data reported in US7053177B1, “Random peptides that bind to gastro-intestinal tract (GIT) transport receptors and related methods” (Cytogen Corporation, priority 1997, dated 2006).
Ends that are not written are not given here.

Legend:
[1] = system: rat gastro-intestinal tract (closed loop); test: Transport of preselected phage libraries in rat closed loop, detected by oligonucleotide hybridization/autoradiography; details: hPEPT1 pool; in words
BSA = BSA (Bos taurus, UniProt P02769); test: Receptor ELISA of phage on BSA (background control protein); assay type: binding; details: Table 4; phage panned on hPEPT1
Chain of BSA (P02769 25-607): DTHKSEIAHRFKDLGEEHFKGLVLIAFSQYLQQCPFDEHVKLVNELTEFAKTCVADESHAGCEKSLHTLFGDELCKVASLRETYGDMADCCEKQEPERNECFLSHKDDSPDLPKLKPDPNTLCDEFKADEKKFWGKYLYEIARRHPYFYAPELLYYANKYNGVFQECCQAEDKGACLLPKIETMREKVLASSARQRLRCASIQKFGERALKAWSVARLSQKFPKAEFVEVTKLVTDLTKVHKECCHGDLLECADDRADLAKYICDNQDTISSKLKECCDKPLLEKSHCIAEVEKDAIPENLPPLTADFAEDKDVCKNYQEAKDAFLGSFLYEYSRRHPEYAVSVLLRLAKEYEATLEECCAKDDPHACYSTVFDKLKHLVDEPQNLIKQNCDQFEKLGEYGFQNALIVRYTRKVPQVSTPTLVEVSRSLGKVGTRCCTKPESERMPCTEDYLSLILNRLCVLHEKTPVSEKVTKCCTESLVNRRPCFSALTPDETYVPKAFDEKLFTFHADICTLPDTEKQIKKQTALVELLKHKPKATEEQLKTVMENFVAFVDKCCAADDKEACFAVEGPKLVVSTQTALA
Protocol: 96 well plates were coated overnight with GIT receptor, BSA and, optionally, IDE (insulin degrading enzyme, an irrelevant His-fusion protein)or hTF. The plates were blocked for one hour with 0.5% BSA-PBS. After clarification, the amplified phage were diluted 1:100 in 1% BSA plus 0.05% Tween 20 in PBS and added to the plates. Following incubation of the plates on a rotator for 1 to 2 hours, the plates were washed 5 times with 1% BSA plus 0.05% Tween 20 in PBS. Dilute anti-M13-HRP conjugate (anti-M13 antibody linked to horse radish peroxidase (HRP)) was added to all the wells and the plate was incubated for one hour on a rotator. After the plates were washed 5 times, as described above, TMB substrate was added to the wells. The plates were read at 650 nm absorbance.

[2] = Animal Study 3: intraduodenal open loop leuprolide acetate particles, plasma leuprolide; assay type: in vivo, Wistar rats; details: intraduodenal 600 μg vs 12.5 μg subcutaneous
Protocol: An intraduodenal open loop model study was carried out on Wistar rats (300–350 g). Group 1 was administered leuprolide acetate (12.5 μg) subcutaneously. Group 2 was administered intraduodenally uncoated leuprolide acetate particles (600 μg, 1.5 ml).

## SARDSGPAEDGSRAVRLNGVENANTRKSSRSNPRGRRHP (not fully specified) [Peptide P31]
[1]
  Binding to / presence in the intestine samples: preferential binding
  Presence in the portal circulation: found
  Presence in the systemic circulation: found in the systemic circulation
BSA
  BSA: 0.075 OD
[2]
  Plasma levels of leuprolide relative to subcutaneous injection: enhanced plasma levels of leuprolide
